In the DeepSol protein solubility set:

Assay: soluble on expression in E. coli; label from the status in PepcDB or PDB records

Sequence | soluble on expression in E. coli
MAHHHHHHMGGAVSFCLQKLNKVSEVEYRPYKEYASYGEQSVPVKGSDDSGRSMIYRMSNTSEEELKRLRDEWYAGGSCLSVLERLCKERGKRTCLAYRKLKTIEKNETTTSDGRKKVLETYVFEPERRTMSYTLFWQNIVDFGRGLHEIGLTKGNTVSIYEETRWQWLCTMYSCWSQGLLVSTVYANLGEDALQYALDEAQCNAIVCNGSKVKDVLAMFKVIEAPKGTKVIYLDELPPSVTSEEYDLYAWSDVVARGKKSEASCRIPSGAESKDELALIMYTSGTTGNPKGVMHTHGSLYCGCMTISQRINDLLGKMKEQEWYCSYLPLAHIMELAVTSVLMMRGVIIGYGSPRTLLDTFAKPCGDLTTYRPLVFVAVPRVFDSMKRAVEEKLPPPGSLKRKIFDKAYEARLKALKKGCDTPFFNKRVFANARKVMGGRVYAMLSGGGPLSESTQEFINVVFGMVIQGWGMTESVACGGIQRTGNLEYNCVGQVLKTAEVQLLDTDEFKHTDQPEPRGEVLLRGPFLFKGYYKQPEQTREALDNDGWLHTGDVASVTPSGTMRIVGRVKALAKNANGEYLALEMLESIYGTNEITVPNGVCVLVHPHRTYIAIIAVTNEKLVKAFMKKHKIENGGFPAILDDAEFLRVVLQSLQKTARDANRCSFEVVQGVKLLNEEWTPENGVLTAAMKLKRRVISENYADFINKLFEKQ | not soluble
MAHHHHHHMGISEGFEGIGVYAGSISAFMKPAHEKADATFVTNGDGVLPCEQPGSQAAIQAAQADYMASVAMTGKLPSPPHAGAEAHLHAHMQASHTSSLPRRAPPAALNVTPRNPPMSLAADPKLLSSPTSASAARPAVAAAAAAIGVTARPATSSLSSSPRPQSHIAKGASRVTADGSRIMRNKEATDYYRALPQNELSKEDMWRRINEASADRAEATGTAIGSAEVDYIKLEDELRDFDLFHYRIGEMAYPDQAMRRDYYALWNLAMSLNKARWSMLEVHSQRGMKTTGAGMKLIFWKESVGAVMEKRKMCTGEFTDSHPVLRPFAAAVERNPHMTKAFVRGFTDARLRVIQQPGNVQQLFDHFDKFYGYFFNSLLEVTHIKDEATEHLMTHVGRATGLTNHCVMFWKKYARLGFTMLPADLCADNHVNLGLLKNIPLASRDRAVRKVLFDVMCIVKDEMLHAQKCAKDVPPKAWPIVMECLYANYYLGFLQRRDFNVSAMFADHNIENAGFTWYRLKKRWEWERYQSIERLVDEAAPLPYINTCFTHRGSHYKMASGVGSGAPQAQRKRS | not soluble
MAHHHHHHMGKAAKGRTAMPGKLDTTEADKRTPKSIIIYRGEVGIHVRSLMHEWRNVFLPWSSKKLHGKNKSLKDFLAVAATFSASHLQLFTAPSQGTSLRIMRFFNGPTLSFRVLSFTLHKEIVAKQRRPVAVDRAAWEVAPIVVLNNFTHPDLAHRAEVPLLTATFKALFPSLNVQTIQSSEIQRICLFHYDHVEHVVEVRHYYINARTVGVTKTVKKLLENRRPTKLGTLESIDEVLDREDAWSDTDGEGEEVPLVQPFRQHREQCRVKLQEIGPRMTLQLSKVENGFAGGEVIYHRTEKKTLREVQVNASKVRARKTEKAKRRALQDENVQRKRQKREDKLERKHQRREAAAEAQQANPFEVAHGDGDGDGYAAGDEE | soluble
MAHHHHHHMGLEDIDECLPPSLGGKGQVLKGRPVNNGDGTSGSCAKVNFGELFGFPVASSGGAVMPSASAGVGSVQAGSKTECQEPEEQWIWVSAEGQKSEASPVDNMAGRSNDPLDAFFTSHTPSLQPSSSMKREEKPFTDLLDFSKPAERVRYSDEHSLLEAFENQSKGRRADVRDDPSLEDLSHGSSNNAVRARLLKIMNYYDILGVTRDATEEQIRQRYKQKALELHPDRVGRDQTPEEVELFKVMTKANEVLCDPEERAKYDEELRCSNVGADDEAQWLFHLHLR | soluble
MAHHHHHHMGLEDIDVDDPPLTTSATPQTQKQCSSTLPNPPVTNVVKGASAPVDLVDLFGDLNVSTATPVVVTAATVGAATNSKNQAHYAGNTADDDFEWVTAKPSVAPPLAPKSYQGNAGTSNDPLDSFFSQAVPTPAATETAKPPDSSNDLFDFSEPVERVKYTNENTLLEAFANQGKANQGGGSKGPTLADLSKGSSDNVVKARLLKLMNYYDVLGVTPDATEAVIRQRFKKKALELHPDRVGRDQTPEEVELFKVMTKAHEVLTDPEERAKYDAQLLGGVPSGSPDSDWFFPPS | soluble
MAHHHHHHMGPTPYQDKPYPVQPHNLNEFQQPPDTWRKSPFMSKLMDQALPVYDDVVTGSGRLYWQEPAKVWHLFEADDTLILEEHDREEWNERPYVAVNHLYEPPIGSEERPIRVEAVGNPGDQQIVMCFGNCAPHVPQSTYYMMMKGYSKNKCPMCQQWFYIHNRPWLVMHPDWTDEPAADEGPAYTFAEIEAEFDRDFHEFAVYLNAE | not soluble
MAHHHHHHMGQISSKEDEIEKQNIYATYPGLEQQLDMVFACHDISKQGKLSYKTVEMILRHFLMQCGFMEYVCRFVDENGTLDLKHVSNYLSIKKLMYKLKCCGESMLTLDEMKELVIIFLKKISDTYTEDQTKWLEQMKSSQEQQDKALEEAMYKYEKNILFHHAVKEQQILQNDKKLNEWNENVENAYEAQQEILRQFESSRKKNIDISLEKNNELIIAKDYIDKIKEAATDNKYDNSKCFIYPASSAPCGACTSAGAIIHHRRYKEKRRKKEYSLCL | not soluble
MAHHHHHHMGRSFKVFLSNYVYRYGAAVWELRVCIERCAFPDYYAASPHDCAASSHYHAAYPPRSCSECGNHLSDPTELVSTSFRGRTGPAWLFSKVINVCEGQYEDRMMTTGQHTIVDIYCNNCRNNVGWKYEDSSEESQKYKKGKYILEKALLSFLVIDQHGKEHEFELKSSDCDF | not soluble
MAHHHHHHMGSKYGSGNYQLFRALYKDLCDEIRREYYTKPPPPPPATRTTGASPSLVAAEAALEVHGSAGSGANDTSSGAAKQRSMAGGAGATSSSTQGGGMTAGSEREGSTVEAAHAARETAATPPSQPEETYGDGSWSVQHRPEDNVAVFHRGAVKRGRLAAVHAWARIELKDPPRLNAVLTFADWIPIEVCVERNGIVIHFSMAANEGGMHMRNVRVYEPKSAEERAALLDPSDDGEYARKNFYYDGPCLWHLELDMLNELYDVMQDHGVTLDWIRWAASWVFYLEHVNYVRWNLGMLEELIPSSLRGPEEDFLLPVEKALLAEPVEDWLRAHSI | not soluble
MAHHHHHHMGTLEAQTQGPGSMGTSQEFETSSLKTLPLYELHEKAGAKFGAFAGWRMPLTYPLGVLKEHLHTRAHAGLFDISHMKLIAVEGPKAVEFLSYALPVDAALLKIGQSRYSYLLNERAGILDDLILTRLAECRFMLVANAGNAQADFAELEKRAFGFECQVIALERVLLALQGPQAAAVLADAGLPGNELLFMQGFEPQQDWFITRSGYTGEDGFEIALPIGCARALAEKLLGDSRVEWVGLAARDSLRLEAGLCLHGNDITPDTTPIDAALTWAVPKNVREKAQFYGAKAFLESLQKGPSRCRVGLKPQTRQPIRAGAVLFDNEGNRIGVVTSGGFGPSFDGPVAMGYVPVAWKVEGTEVFTELRGKKIALSVHSLPFVEQRYFKG | soluble
MAHHHHHHMGTLEAQTQGPGSMMETDATAEAAAVAYEDIITRFGAAPITDDLLKRFETVTGTKAHPMLRRGLFYAHRDFEEFLSYYEKGHPIYIYTGRGPSSGALHLGHLLPFIFTKYLQDAFKCYVVIQITDDEKFLRNRSLSYAEVDSYTRENIKDIIACGFDPDKTFIFINSQYLSLKNRYRFSCLVDRMLPISQLRASFGFSNDANVGYAAFPPKQMLPVYSTYFDGLPFTRVPLPVGTGNEDAADAVSTKKASKKTPKKDAVLSPVHVVEELFPDSKRYQKAMCLIASGIEQDPYFRLARDLAPRMGHPKNAYLLGKFLPGLQGSGTKMSASDPNSAIYLTDTPAQIKNKINRYAFSGGRDTEEEHRAFGADLSVDVSVRYLEVFMKDDAELEKLKADYKTGKLLTGEVKATLIGILQGLIKEHAERRDKVDTTMIESFTVKKELQ | soluble
MAHHHHHHMGTLEAQTQGPGSMPIKSSLLIVVACALLDQDNRVLLTQRPEGKSLAGLWEFPGGKVEQGETPEASLIRELEEELGVHVQADNLFPLTFASHGYETFHLLMPLYFCSHYKGVAQGREGQNLKWIFINDLDKYPMPEADKPLVQVLKNFFI | soluble
